From IntAct's records for PubMed 11739743

B1: Cell cycle protein kinase spo4 (Schizosaccharomyces pombe (strain ATCC 38366 / 972)), Q9UQY9 (parent)
chain: MLSMLLPFGNSGVYASDVDREDRPEIAKLVQAFPTIEEDYHVVKLVGAGSFSSVFKAVDRHFDSYDNSYWISSQIEDQMPHDKTKRPKNHFVALKRIYATVLPSRIQTELEMLHELRGSDCVLNMITAVRHQDQVLIVLPFIQHAEFRDFYMKYSLPEIGAYLRDLLKGLAHIDAKGIIHRDIKPGNFAWNPYTQRGVILDFGLAQWQEADAPTENCCVDKLRKLKQEGKYYDYFPFEKTIADPPEGYLLHDPRPTKRADRAGTRGFRAPEVLFRCQNQTSSIDVWSVGVILLCFLTHRYPFFRCEDDIDAIVELAHIFGRNGMSNCALLHGQIWSDNIPTLLDQKHNWLDLIASITKNDENLILETSSDYQVALAIDLLDKLLELHPSKRVKAKTALQHEFFNACGVTRSGFEAENPFRSDFPSTVEQ
partner: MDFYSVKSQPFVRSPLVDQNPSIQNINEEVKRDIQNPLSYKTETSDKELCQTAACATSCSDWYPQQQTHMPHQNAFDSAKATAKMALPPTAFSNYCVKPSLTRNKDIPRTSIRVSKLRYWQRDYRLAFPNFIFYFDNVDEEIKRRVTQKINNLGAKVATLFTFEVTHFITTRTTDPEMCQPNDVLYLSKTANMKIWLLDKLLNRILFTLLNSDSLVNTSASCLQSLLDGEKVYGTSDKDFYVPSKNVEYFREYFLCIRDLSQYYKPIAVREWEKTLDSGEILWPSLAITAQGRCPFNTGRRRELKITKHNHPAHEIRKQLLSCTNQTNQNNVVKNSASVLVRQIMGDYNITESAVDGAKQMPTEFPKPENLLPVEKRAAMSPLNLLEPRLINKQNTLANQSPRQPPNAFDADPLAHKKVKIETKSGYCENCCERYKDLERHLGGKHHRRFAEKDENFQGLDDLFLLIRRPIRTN

Variants of: B1
Conditions: with spo6_schpo spo6, Q9Y7J1

Variant | effect of a mutation on the interaction
K95A | with no effect
